According to the supplement of paper PMC7877785:
± gives the uncertainty stated by the source.

Assay: self-splicing fitness, log relative to wild type (ln ratio); higher = more splicing; Tetrahymena group I intron in knt gene, E. coli kanamycin selection, DiMSum; sequences stand for … in CUCUCU…GGAGGGAAAAGUUAUCAGGCAUGCACCUGGUAGCUAGUCUUUAAACCAAUAGAUUGCAUCGGUUUAAAAGGCAAGACCGUCAAAUUGCGGGAAAGGGGUCAACAGCCGUUCAGUACCAAGUCUCAGGGGAAACUUUGAGAUGGCCUUGCAAAGGGUAUGGUAAUAAGCUGACGGACAUGGUCCUAACCACGCAGCCAAGUCCUAAGUCAACAGAUCUUCUGUUGAUAUGGAUGCAGUUCACAGACUAAAUGUCGGUCGGGGAAGAUGUAUUCUUCUCAUAAGAUAUAGUCGGACCUCUCCUUAAUGGGAGCUAGCGGAUGAAGUGAUGCAACACUGGAGCCGCUGGGAACUAAUUUGUAUGCGAAAGUAUAUUGAUUAGUUUUGGAGUACUCGUGGUCG
In short: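 A randomised library covering all eight P1ex-region intron nucleotides was built with the intron in the knt kanamycin-resistance gene on pET-22b(+) and held in E. coli BL21(DE3). Cells were grown overnight at 37°C or 30°C on LB agar, with or without 25 μg/mL kanamycin, plus 100 μg/mL carbenicillin, 50 μM IPTG and 0.2% rhamnose, and pooled colonies were amplicon-sequenced on an Illumina HiSeq 2500. DiMSum fitness is the error-weighted combination of wild-type-normalised replicate fold changes, kanamycin versus none.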

Sequence: GUUGAGCAAUAUUACGAGGG
- self-splicing fitness (ln) (30 °C): -2.7 ± 0.21
- self-splicing fitness (ln) (37 °C): -2.67 ± 0.24

Sequence: CCAGAGCAAUAUUACGCUAC
- self-splicing fitness (ln) (37 °C): -1.72 ± 0.33

Sequence: CACAAGCAAUAUUACGGAUU
- self-splicing fitness (ln) (30 °C): -3.91 ± 0.2
- self-splicing fitness (ln) (37 °C): -2.61 ± 0.2

Sequence: CGCAAGCAAUAUUACGAACG
- self-splicing fitness (ln) (30 °C): -1.23 ± 0.1
- self-splicing fitness (ln) (37 °C): -1.03 ± 0.14

Sequence: GCAAAGCAAUAUUACGCGUG
- self-splicing fitness (ln) (30 °C): -3.41 ± 0.1
- self-splicing fitness (ln) (37 °C): -1.27 ± 0.078

Sequence: AAGGAGCAAUAUUACGUUUU
- self-splicing fitness (ln) (30 °C): -3.02 ± 0.22
- self-splicing fitness (ln) (37 °C): -1.94 ± 0.2

Sequence: AUGAAGCAAUAUUACGUGGG
- self-splicing fitness (ln) (30 °C): -2.55 ± 0.11
- self-splicing fitness (ln) (37 °C): -2.67 ± 0.14

Sequence: CUUGAGCAAUAUUACGGCAG
- self-splicing fitness (ln) (30 °C): -1.01 ± 0.11
- self-splicing fitness (ln) (37 °C): -0.0287 ± 0.15

Sequence: UGGGAGCAAUAUUACGGCGA
- self-splicing fitness (ln) (30 °C): -1.73 ± 0.36
- self-splicing fitness (ln) (37 °C): -1.23 ± 0.28

Sequence: AUCUAGCAAUAUUACGGGUC
- self-splicing fitness (ln) (30 °C): -5.59 ± 0.41
- self-splicing fitness (ln) (37 °C): -2.49 ± 0.23

Sequence: UGCAAGCAAUAUUACGUCGU
- self-splicing fitness (ln) (30 °C): -3.58 ± 0.22
- self-splicing fitness (ln) (37 °C): -1.81 ± 0.17

Sequence: CAUCAGCAAUAUUACGAAUC
- self-splicing fitness (ln) (30 °C): -1.97 ± 0.13
- self-splicing fitness (ln) (37 °C): -1.25 ± 0.12

Sequence: AACGAGCAAUAUUACGGGAC
- self-splicing fitness (ln) (30 °C): -3.37 ± 0.22
- self-splicing fitness (ln) (37 °C): -3.61 ± 0.46

Sequence: CGGAAGCAAUAUUACGCUUC
- self-splicing fitness (ln) (30 °C): -3.81 ± 0.35

Sequence: AUCGAGCAAUAUUACGGGUU
- self-splicing fitness (ln) (30 °C): -3.65 ± 0.23
- self-splicing fitness (ln) (37 °C): -2.32 ± 0.2

Sequence: GGGGAGCAAUAUUACGAGCG
- self-splicing fitness (ln) (30 °C): -2.37 ± 0.25
- self-splicing fitness (ln) (37 °C): -1.53 ± 0.22

Sequence: UCUCAGCAAUAUUACGCACC
- self-splicing fitness (ln) (30 °C): -2.18 ± 0.42

Sequence: CACUAGCAAUAUUACGUUCC
- self-splicing fitness (ln) (30 °C): -3.39 ± 0.17
- self-splicing fitness (ln) (37 °C): -1.65 ± 0.17

Sequence: AGUGAGCAAUAUUACGCGUU
- self-splicing fitness (ln) (30 °C): -3.04 ± 0.19
- self-splicing fitness (ln) (37 °C): -2.18 ± 0.18

Sequence: AACUAGCAAUAUUACGGGCA
- self-splicing fitness (ln) (30 °C): -0.872 ± 0.079
- self-splicing fitness (ln) (37 °C): -0.13 ± 0.088

Sequence: UAGAAGCAAUAUUACGUUUU
- self-splicing fitness (ln) (30 °C): -3.58 ± 0.17
- self-splicing fitness (ln) (37 °C): -2.85 ± 0.18

Sequence: UUACAGCAAUAUUACGUCGU
- self-splicing fitness (ln) (30 °C): -3.81 ± 0.16
- self-splicing fitness (ln) (37 °C): -2.26 ± 0.14

Sequence: UGUAAGCAAUAUUACGGUUA
- self-splicing fitness (ln) (30 °C): -0.297 ± 0.091
- self-splicing fitness (ln) (37 °C): -0.0116 ± 0.098

Sequence: AUGCAGCAAUAUUACGCACC
- self-splicing fitness (ln) (30 °C): -1.11 ± 0.18
- self-splicing fitness (ln) (37 °C): -0.696 ± 0.21

Sequence: GCGGAGCAAUAUUACGCGCA
- self-splicing fitness (ln) (30 °C): -2.93 ± 0.3
- self-splicing fitness (ln) (37 °C): -0.701 ± 0.17

Sequence: UGCCAGCAAUAUUACGUCCC
- self-splicing fitness (ln) (30 °C): -2.89 ± 0.31
- self-splicing fitness (ln) (37 °C): -1.71 ± 0.43

Sequence: GAAUAGCAAUAUUACGAACU
- self-splicing fitness (ln) (30 °C): -0.471 ± 0.085
- self-splicing fitness (ln) (37 °C): 0.508 ± 0.1

Sequence: CGAUAGCAAUAUUACGUUGU
- self-splicing fitness (ln) (30 °C): -3.45 ± 0.15
- self-splicing fitness (ln) (37 °C): -2.61 ± 0.21

Sequence: UUCUAGCAAUAUUACGCUAG
- self-splicing fitness (ln) (30 °C): -3.41 ± 0.23
- self-splicing fitness (ln) (37 °C): -2.42 ± 0.41

Sequence: GGCAAGCAAUAUUACGUAGG
- self-splicing fitness (ln) (30 °C): -1.09 ± 0.061
- self-splicing fitness (ln) (37 °C): -0.937 ± 0.088

Sequence: UCCGAGCAAUAUUACGCUCC
- self-splicing fitness (ln) (30 °C): -1.58 ± 0.41

Sequence: GUAUAGCAAUAUUACGCUUU
- self-splicing fitness (ln) (30 °C): -3.51 ± 0.24
- self-splicing fitness (ln) (37 °C): -2.28 ± 0.17

Sequence: GGUUAGCAAUAUUACGGGGA
- self-splicing fitness (ln) (30 °C): -2.05 ± 0.25
- self-splicing fitness (ln) (37 °C): -2.49 ± 0.29

Sequence: CUUUAGCAAUAUUACGGCUC
- self-splicing fitness (ln) (37 °C): -2.16 ± 0.46

Sequence: CCUAAGCAAUAUUACGCUUC
- self-splicing fitness (ln) (30 °C): -3.16 ± 0.28

Sequence: CUCGAGCAAUAUUACGCCGC
- self-splicing fitness (ln) (37 °C): -2.12 ± 0.4

Sequence: CGGAAGCAAUAUUACGACCU
- self-splicing fitness (ln) (30 °C): 0.28 ± 0.096
- self-splicing fitness (ln) (37 °C): 0.399 ± 0.11

Sequence: AAAGAGCAAUAUUACGGAUG
- self-splicing fitness (ln) (30 °C): -4.57 ± 0.42
- self-splicing fitness (ln) (37 °C): -2.06 ± 0.23

Sequence: GUCGAGCAAUAUUACGGCGG
- self-splicing fitness (ln) (37 °C): -2.67 ± 0.41

Sequence: CUAUAGCAAUAUUACGCCAC
- self-splicing fitness (ln) (37 °C): -1.21 ± 0.42

Sequence: GCAGAGCAAUAUUACGCGAC
- self-splicing fitness (ln) (37 °C): -2.27 ± 0.36
